Assay results: publication PMC8635433

How the values were obtained:
[1] = biological target: ChAdOx1 hexon (chimpanzee adenovirus Y25); assay: cryo-EM structure
[2] = biological target: AZD1222 vaccine preparation of ChAdOx1 (ChAdOx1 nCoV-19) (chimpanzee adenovirus Y25); assay: SPR
[3] = biological target: human adenovirus type 26 (HAdV-D26) viral vector (virus particle) (human adenovirus type 26); assay: SPR
[4] = biological target: human adenovirus type 5 (HAdV-C5) viral vector (virus particle) (human adenovirus type 5) (UniProt P04133); assay: SPR
[5] = biological target: ChAdOx1 fiber knob protein (chimpanzee adenovirus Y25); assay: crystal structure; ChAdOx1 fiber knob, P1, 1.59 Å, four trimers in the asymmetric unit
[6] = biological target: ChAdOx1 pIX (chimpanzee adenovirus Y25); assay: cryo-EM structure
[7] = biological target: ChAdOx1 penton protein (chimpanzee adenovirus Y25); assay: cryo-EM structure
[8] = biological target: coxsackie and adenovirus receptor (CAR), immobilised for SPR (UniProt P78310); assay: SPR; BIAcore T200; about 2000 RU of CAR, DSG2 and CD46 amine-coupled to a CM5 chip; fiber knob proteins flowed over, 1:2 serial dilutions; 25°C, PBS with 0.001% P20, 30 μl/min; 1:1 interaction model
CAR on CHO-CAR cells = CAR on CHO-CAR cells (UniProt P78310); assay: flow cytometry on cells; antibody binding inhibition: serial dilutions of fiber knob (0.00001 to 100 μg per 10^5 cells) on CHO-CAR or CHO-BC1 cells, 30 min on ice, then anti-CAR RmcB or anti-CD46 MEM-258 and Alexa Fluor 488 secondary antibody; IC50 by nonlinear regression
Sequence of CAR on CHO-CAR cells (P78310 20-365): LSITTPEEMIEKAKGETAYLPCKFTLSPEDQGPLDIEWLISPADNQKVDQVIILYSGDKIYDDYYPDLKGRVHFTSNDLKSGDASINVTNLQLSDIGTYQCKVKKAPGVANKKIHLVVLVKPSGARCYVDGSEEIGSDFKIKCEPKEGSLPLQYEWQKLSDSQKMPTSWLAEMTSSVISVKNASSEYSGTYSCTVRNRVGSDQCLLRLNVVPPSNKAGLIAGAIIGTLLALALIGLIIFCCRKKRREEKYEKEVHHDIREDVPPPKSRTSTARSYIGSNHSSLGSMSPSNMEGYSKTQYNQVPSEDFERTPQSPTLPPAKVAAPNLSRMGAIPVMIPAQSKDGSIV

ChAdOx1 hexon (natural protein)
stoichiometry N [1]: 3

platelet factor 4 (PF4) (natural protein)
Kd [2]: 514 nM | Kd [3]: 301 nM | Kd [4]: 789 nM

ChAdOx1 fiber knob protein (domain or fragment)
stoichiometry N [5]: 3

ChAdOx1 pIX (natural protein)
stoichiometry N [6]: 4

ChAdOx1 penton protein (natural protein)
stoichiometry N [7]: 5

ChAdOx1 fiber knob protein (domain or fragment; other documents disagree on this pair)
Kd [8]: 7.16 nM

HAdV-B35 fiber knob protein (domain or fragment)
fold higher IC50 (reference not named: HAdV-C5 or ChAdOx1 fiber knob) (CAR on CHO-CAR cells): > 1000 fold
